Results taken from patent US11541125B2, “Noncrushable pill formulations” (THE REGENTS OF THE UNIVERSITY OF CALIFORNIA, priority 2016, dated 2023).
Read-outs that look alike come from different tables or passages of the source. Square brackets hold non-standard residues; d marks the D form. Side chains are listed from the residue outwards. Peptide text beside a SMILES is read from it. * marks the point of attachment. ξ: configuration not given here. X2 = CN(CCN*)C(=S)Oc1ccc2c3c1O[C@H]1C(=O)CC[C@@]4(O)[C@@H](C2)N(CC2CC2)CC[C@]314; X1 = CN(CCN*)C(=O)Oc1ccc2c3c1OC1C(=O)CCC4(O)C(C2)N(CC2CC2)CCC314; X4 = CN(CCN*)C(=O)Oc1ccc([N+](=O)[O-])cc1; Trt = c1ccc(C(c2ccccc2)(c2ccccc2)*)cc1; ξF = NC(Cc1ccccc1)C(=O)O; Boc = CC(C)(C)OC(=O)*; ξK = NCCCCC(N)C(=O)O; ξC = NC(CS)C(=O)O; ξA = CC(N)C(=O)O

How the values were obtained:
[1] = test system: trypsin and/or chymotrypsin; test: pNA release assay (absorbance at 405 nm); assay type: biochemical; details: 2 mM, incubated with trypsin and/or chymotrypsin, 90 minutes, 37° C.
Procedure: A stock solution of the CAAK(F)-diamino-pNA was prepared in dimethyl sulfoxide (DMSO) to produce a 16.0 mg/mL solution. A 7.5 mg/mL stock solution of the trypsin was prepared in 50 mM NH4HCO3 buffer (pH=8.05). A 7.5 mg/mL stock solution of chymotrypsin was prepared in 50 mM NH4HCO3 buffer (pH=8.05).
A 96 well plate was used for monitoring the solutions at 405 nm using a plate reader. 20 μL of the peptide was combined with 62.0/66.6 μL of no enzyme, trypsin only, chymotrypsin only, or with both enzymes respectively. All solutions were diluted to a total volume of 200 μL using 50 mM NH4HCO3 (pH=8.05). Blanks were prepared by combining the enzymes with DMSO/buffer and their absorbances were subtracted from the cleavage conditions. Additionally, the residual signal from the peptide in the presence of no enzymes was also used as a blank and subtracted out from enzymatic conditions.

[2] = Procedure: In order to determine the stability of the enzymatically cleavable covalent linkage between the dual-enzyme responsive peptide and Naltrexone, the drug conjugates (below) were synthesized and subjected to a range of different pH buffers that were chosen to emulate the pH range of typical household chemicals (pH 2-10).
The stabilities of these linkages were assessed by HPLC by monitoring the relative amount of Naltrexone versus the intact peptide-Naltrexone conjugate.

[3] = conjugate sample, no pH buffer named

Row | SMILES | theoretical pNA released [1] [%] | stability over the entire pH range ([2]; HPLC, pH buffers) | Percent Degradation, t = 0.5 hr [2, 3] [%] | Percent Degradation, t = 24 hr [2, 3] [%] | Percent Degradation, t = 0.5 hr ([2]; in pH 2) [%] | Percent Degradation, t = 0.5 hr ([2]; in pH 4) [%] | Percent Degradation, t = 0.5 hr ([2]; in pH 7) [%] | stability of the linkage relative to the other linkers ([2]; HPLC, Naltrexone versus intact conjugate, pH buffers) | Percent Degradation, t = 24 hr ([2]; in pH 2) [%]
1 | CC(=O)NC(CS)C(=O)NC(C)C(=O)NC(C)C(=O)NC(CCCCNC(=O)C(N)Cc1ccccc1)C(=O)NCCN(C)C(=O)Oc1ccc([N+](=O)[O-])cc1 (centres unmarked) [CAAK(F)-diamino-pNA] (Ac-CAAK(Phe)-X4; configuration not given here) | 55 |  |  |  |  |  |  |  | 
2 | CC(=O)NC(CSC(c1ccccc1)(c1ccccc1)c1ccccc1)C(=O)NC(C)C(=O)NC(C)C(=O)NC(CCCCNC(=O)C(Cc1ccccc1)NC(=O)OC(C)(C)C)C(=O)NCCN(C)C(=O)Oc1ccc2c3c1OC1C(=O)CCC4(O)C(C2)N(CC2CC2)CCC314 (centres unmarked) [NPC] (Ac-C(Trt)AAK([Phe-Boc])-X1; configuration not given here) |  | very good stability | 0 | 0 | 6.00 | 3.50 | 1.50 |  | 
3 | CC(=O)NC(CS)C(=O)NC(C)C(=O)NC(C)C(=O)NC(CCCCNC(=O)C(N)Cc1ccccc1)C(=O)NCCN(C)C(=S)Oc1ccc2c3c1O[C@H]1C(=O)CC[C@@]4(O)[C@@H](C2)N(CC2CC2)CC[C@]314 (some centres unmarked) [NPT] (Ac-[ξC][ξA][ξA][ξK](ξF)-X2) |  |  | 0.51 | 2.90 |  |  |  | more stable than the carbamate linker | 4.10
